# Test results taken from the supplement of paper PMC9112550, “Optimization of the antimicrobial peptide Bac7 by deep mutational scanning” (BMC Biology, 2022).
# Tested on: Escherichia coli TOP10
# Experiment: shrunken log2 fold change of peptide-encoding DNA abundance (4.5 h post-induction vs induction); higher = less antimicrobial activity (less host growth inhibition)
# Settings: time post-induction: 4.5 h; library: site-saturation at positions 5, 18, 19, 20
# 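Also: peptides expressed intracellularly from a pBAD plasmid library in pooled LB shake-flask culture, induced with 0.3% L-arabinose, DNA abundance read by NGS, three biological replicates, DESeq2 with apeglm shrinkage.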
row,Sequence,shrunken log2 fold change
1,RRIRCRPPRLPRPRPRPTWMPRP,-0.18
2,RRIRERPPRLPRPRPRPRWKPRP,-0.0289
3,RRIRKRPPRLPRPRPRPHYCPRP,-0.00783
4,RRIRMRPPRLPRPRPRPMTMPRP,0.178
5,RRIRPRPPRLPRPRPRPIIGPRP,-0.0597
6,RRIRCRPPRLPRPRPRPGREPRP,2.28
7,RRIRCRPPRLPRPRPRPFTNPRP,-0.685
8,RRIRQRPPRLPRPRPRPSYYPRP,-0.356
9,RRIRYRPPRLPRPRPRPYPGPRP,-0.379
10,RRIRARPPRLPRPRPRPLAYPRP,0.293
11,RRIRHRPPRLPRPRPRPTFWPRP,0.179
12,RRIRDRPPRLPRPRPRPDHPPRP,-0.76
13,RRIRLRPPRLPRPRPRPGTYPRP,0.386
14,RRIRQRPPRLPRPRPRPVRVPRP,0.686
15,RRIRLRPPRLPRPRPRPMYAPRP,-0.248
16,RRIRWRPPRLPRPRPRPMLAPRP,1
17,RRIRTRPPRLPRPRPRPEFVPRP,0.107
18,RRIRQRPPRLPRPRPRPDPHPRP,-0.0406
19,RRIRTRPPRLPRPRPRPRSVPRP,-0.272
20,RRIRYRPPRLPRPRPRPGRAPRP,0.17
21,RRIRRRPPRLPRPRPRPMSRPRP,-0.0357
22,RRIRPRPPRLPRPRPRPDYRPRP,-0.321
23,RRIRFRPPRLPRPRPRPWGYPRP,-0.164
24,RRIRSRPPRLPRPRPRPGLMPRP,0.197
25,RRIRQRPPRLPRPRPRPVNLPRP,-0.014

row,Sequence,shrunken log2 fold change
1,RRIRTRPPRLPRPRPRPLKYPRP,-0.641
2,RRIRMRPPRLPRPRPRPNMMPRP,-0.0235
3,RRIRTRPPRLPRPRPRPLHKPRP,0.0334
4,RRIRLRPPRLPRPRPRPFDTPRP,-0.167
5,RRIRPRPPRLPRPRPRPPPFPRP,0.277
6,RRIRGRPPRLPRPRPRPRMSPRP,0.28
7,RRIRRRPPRLPRPRPRPDGKPRP,0.0432
8,RRIRMRPPRLPRPRPRPAPRPRP,1.72
9,RRIRSRPPRLPRPRPRPIVHPRP,-0.2
10,RRIRVRPPRLPRPRPRPWQQPRP,-0.097
11,RRIRIRPPRLPRPRPRPIQPPRP,-0.044
12,RRIRRRPPRLPRPRPRPCLLPRP,-0.335
13,RRIRTRPPRLPRPRPRPAMDPRP,-0.708
14,RRIRLRPPRLPRPRPRPMFSPRP,-0.267
15,RRIRARPPRLPRPRPRPVVYPRP,-0.285
16,RRIRSRPPRLPRPRPRPQWPPRP,0.121
17,RRIRWRPPRLPRPRPRPDRWPRP,0.827
18,RRIRSRPPRLPRPRPRPNVHPRP,-0.312
19,RRIRHRPPRLPRPRPRPSAQPRP,0.127
20,RRIRARPPRLPRPRPRPNVWPRP,0.537
21,RRIRFRPPRLPRPRPRPWGDPRP,0.00532
22,RRIRKRPPRLPRPRPRPVMHPRP,-0.0631
23,RRIRLRPPRLPRPRPRPMYNPRP,-0.273
24,RRIRQRPPRLPRPRPRPGFTPRP,-0.11
25,RRIRMRPPRLPRPRPRPHIRPRP,-0.0162

row,Sequence,shrunken log2 fold change
1,RRIRDRPPRLPRPRPRPGHGPRP,-0.0236
2,RRIRCRPPRLPRPRPRPSCHPRP,-0.301
3,RRIRSRPPRLPRPRPRPKLCPRP,0.0502
4,RRIRQRPPRLPRPRPRPTRAPRP,0.647
5,RRIRYRPPRLPRPRPRPGMTPRP,0.0238
6,RRIRDRPPRLPRPRPRPHKTPRP,-0.0521
7,RRIRTRPPRLPRPRPRPAQQPRP,0.233
8,RRIRTRPPRLPRPRPRPEFPPRP,0.0504
9,RRIRERPPRLPRPRPRPPHHPRP,-0.123
10,RRIRWRPPRLPRPRPRPEPIPRP,0.204
11,RRIRSRPPRLPRPRPRPNGAPRP,-0.299
12,RRIRYRPPRLPRPRPRPWSEPRP,-0.117
13,RRIRHRPPRLPRPRPRPSRMPRP,-0.518
14,RRIRRRPPRLPRPRPRPFWGPRP,0.463
15,RRIRERPPRLPRPRPRPLRHPRP,0.11
16,RRIRDRPPRLPRPRPRPHMGPRP,-0.174
17,RRIRDRPPRLPRPRPRPILLPRP,-0.28
18,RRIRWRPPRLPRPRPRPAPEPRP,0.603
19,RRIRNRPPRLPRPRPRPLAIPRP,0.0449
20,RRIRKRPPRLPRPRPRPKRHPRP,0.255
21,RRIRWRPPRLPRPRPRPRASPRP,0.852
22,RRIRIRPPRLPRPRPRPRTQPRP,0.106
23,RRIRKRPPRLPRPRPRPQDMPRP,-0.036
24,RRIRQRPPRLPRPRPRPKERPRP,-0.00138
25,RRIRTRPPRLPRPRPRPDYLPRP,-1.61

row,Sequence,shrunken log2 fold change
1,RRIRPRPPRLPRPRPRPTWNPRP,0.00306
2,RRIRERPPRLPRPRPRPEVLPRP,0.28
3,RRIRMRPPRLPRPRPRPWGKPRP,0.0449
4,RRIRWRPPRLPRPRPRPMMRPRP,1.08
5,RRIRDRPPRLPRPRPRPYDLPRP,-0.00674
6,RRIRARPPRLPRPRPRPKYCPRP,-0.464
7,RRIRWRPPRLPRPRPRPEHKPRP,0.278
8,RRIRMRPPRLPRPRPRPHFHPRP,-0.376
9,RRIRTRPPRLPRPRPRPRLNPRP,-0.251
10,RRIRTRPPRLPRPRPRPGITPRP,-0.104
11,RRIRDRPPRLPRPRPRPMQKPRP,0.0229
12,RRIRKRPPRLPRPRPRPQGAPRP,0.451
13,RRIRIRPPRLPRPRPRPHMNPRP,-0.845
14,RRIRTRPPRLPRPRPRPIMPPRP,-0.331
15,RRIRKRPPRLPRPRPRPQHFPRP,0.0698
16,RRIRNRPPRLPRPRPRPSRHPRP,-0.061
17,RRIRIRPPRLPRPRPRPHHYPRP,-0.429
18,RRIRGRPPRLPRPRPRPGTEPRP,0.731
19,RRIRPRPPRLPRPRPRPMYFPRP,-0.0431
20,RRIRHRPPRLPRPRPRPDCSPRP,-0.284
21,RRIRHRPPRLPRPRPRPYHYPRP,-0.125
22,RRIRWRPPRLPRPRPRPQVIPRP,-0.127
23,RRIRTRPPRLPRPRPRPYASPRP,-0.255
24,RRIRLRPPRLPRPRPRPWQKPRP,0.0576
25,RRIRHRPPRLPRPRPRPCWKPRP,-0.119

row,Sequence,shrunken log2 fold change
1,RRIRRRPPRLPRPRPRPAPKPRP,0.905
2,RRIRQRPPRLPRPRPRPFMDPRP,0.0499
3,RRIRPRPPRLPRPRPRPVSDPRP,-0.0922
4,RRIRWRPPRLPRPRPRPCDIPRP,-0.143
5,RRIRCRPPRLPRPRPRPPSGPRP,0.233
6,RRIRLRPPRLPRPRPRPWVFPRP,0.163
7,RRIRPRPPRLPRPRPRPFICPRP,-0.276
8,RRIRIRPPRLPRPRPRPDSCPRP,-0.972
9,RRIRQRPPRLPRPRPRPFGRPRP,0.037
10,RRIRVRPPRLPRPRPRPRDIPRP,-0.0591
11,RRIRCRPPRLPRPRPRPFIIPRP,-0.577
12,RRIRNRPPRLPRPRPRPIRVPRP,-0.0394
13,RRIRERPPRLPRPRPRPRNGPRP,0.0197
14,RRIRERPPRLPRPRPRPIHPPRP,-0.239
15,RRIRDRPPRLPRPRPRPSYFPRP,-0.255
16,RRIRPRPPRLPRPRPRPCWLPRP,-0.018
17,RRIRWRPPRLPRPRPRPFMLPRP,-0.174
18,RRIRFRPPRLPRPRPRPQTMPRP,-0.144
19,RRIRWRPPRLPRPRPRPHHGPRP,-0.234
20,RRIRGRPPRLPRPRPRPDMTPRP,3.09
21,RRIRKRPPRLPRPRPRPDGNPRP,0.00833
22,RRIRQRPPRLPRPRPRPQHIPRP,-0.357
23,RRIRDRPPRLPRPRPRPRVYPRP,0.102
24,RRIRGRPPRLPRPRPRPCFIPRP,0.0559
25,RRIRRRPPRLPRPRPRPTIHPRP,-0.0346

row,Sequence,shrunken log2 fold change
1,RRIRKRPPRLPRPRPRPEVGPRP,1.29
2,RRIRTRPPRLPRPRPRPIEHPRP,0.0859
3,RRIRFRPPRLPRPRPRPTEKPRP,-0.0949
4,RRIRIRPPRLPRPRPRPPHHPRP,-0.242
5,RRIRGRPPRLPRPRPRPRPTPRP,0.906
6,RRIRGRPPRLPRPRPRPATTPRP,0.871
7,RRIRYRPPRLPRPRPRPAANPRP,-0.0861
8,RRIRLRPPRLPRPRPRPKCAPRP,0.0163
9,RRIRFRPPRLPRPRPRPGNAPRP,0.0998
10,RRIRHRPPRLPRPRPRPTGRPRP,-0.089
11,RRIRMRPPRLPRPRPRPWDLPRP,0.36
12,RRIRSRPPRLPRPRPRPIPVPRP,-0.208
13,RRIRSRPPRLPRPRPRPKTFPRP,-0.24
14,RRIRSRPPRLPRPRPRPIKLPRP,0.0994
15,RRIRSRPPRLPRPRPRPRIEPRP,0.753
16,RRIRGRPPRLPRPRPRPGVFPRP,0.465
17,RRIRVRPPRLPRPRPRPQVTPRP,-0.425
18,RRIRMRPPRLPRPRPRPLLWPRP,0.914
19,RRIRERPPRLPRPRPRPYFMPRP,-0.784
20,RRIRQRPPRLPRPRPRPAKAPRP,-0.101
21,RRIRGRPPRLPRPRPRPFSNPRP,0.064
22,RRIRLRPPRLPRPRPRPNQRPRP,0.00956
23,RRIRQRPPRLPRPRPRPKFGPRP,0.102
24,RRIRIRPPRLPRPRPRPTMYPRP,-0.769
25,RRIRFRPPRLPRPRPRPAKGPRP,0.141
